From US20130323259A1 (Novo Nordisk, published 2013)
Where a chain is given by its changes, count along the chain named. In names and notes the source's numbering stands. Several values for one entry are separate records, joined by “and”; a condition that tells them apart may be missing. Equal entries are not always repeated.

B1: monoclonal antibody NNC 0114-0005 (antibody, human IgG1, kappa, V domains shown)
VH: QVQLVESGGGVVQPGRSLRLSCAASGFTFSSYGMHWVRQAPGKGLEWVAFIWYDGSDKYYADSVKGRFTISRDNSKNTLYLQMNSLRAEDTAVYYCARDGDSSDWYGDYYFGMDVWGQGTTVTVSS
VL: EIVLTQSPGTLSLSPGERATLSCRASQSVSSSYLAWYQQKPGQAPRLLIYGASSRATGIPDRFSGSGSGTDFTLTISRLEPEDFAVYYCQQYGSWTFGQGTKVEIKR
notes: also called NNC114-0005
B2: 0114-0000-0039, light chain S53A variant of mAb 0006 (NNC 0114-0005) (antibody, human IgG1, kappa, V domains shown)
VH: B1 VH
VL: EIVLTQSPGTLSLSPGERATLSCRASQSVSSSYLAWYQQKPGQAPRLLIYGAASRATGIPDRFSGSGSGTDFTLTISRLEPEDFAVYYCQQYGSWTFGQGTKVEIKR
B3: 0114-0000-0040, light chain S53T variant of mAb 0006 (NNC 0114-0005) (antibody, human IgG1, kappa, V domains shown)
VH: B1 VH
VL: B2 VL with A53T
B4: 0114-0000-0041, light chain S54A variant of mAb 0006 (NNC 0114-0005) (antibody, human IgG1, kappa, V domains shown)
VH: B1 VH
VL: B2 VL with A53S, S54A
B5: NNC-0114-0044, Light-chain residue 57 Thr to Ser mutated form (L:T57S) of NNC 0114-0005 (antibody, human IgG1, kappa, V domains shown)
VH: B1 VH
VL: B2 VL with A53S, T57S
B6: NNCD-0114-0000-0038, Heavy-chain residue 31 Ser to Ala mutated form (H:S31A) of NNC 0114-0005 (antibody, human IgG1, kappa, V domains shown)
VH: B1 VH with S31A
VL: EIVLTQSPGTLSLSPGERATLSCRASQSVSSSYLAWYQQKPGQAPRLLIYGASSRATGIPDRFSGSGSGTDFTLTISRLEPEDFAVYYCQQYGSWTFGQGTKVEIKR
B7: monoclonal antibody NNC 0114-0015 (antibody, V domains shown)
VH: B1 VH with S31T
VL: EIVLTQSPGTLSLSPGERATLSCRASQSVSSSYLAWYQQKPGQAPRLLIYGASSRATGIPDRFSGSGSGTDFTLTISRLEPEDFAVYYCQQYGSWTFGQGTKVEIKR
notes: also called NNC114-0015
B8: 0114-0000-0043, light chain R55K variant of mAb 0006 (NNC 0114-0005) (antibody, human IgG1, kappa, V domains shown)
VH: B1 VH
VL: B2 VL with A53S, R55K

Tests used:
[1] = target: T1, human IL-21 (hIL-21 protein; recombinant human IL-21) (human, UniProt Q9HBE4 25-162, limits assumed); assay: cell-based or functional assay
T1 sequence (Q9HBE4 25-162 limits assumed): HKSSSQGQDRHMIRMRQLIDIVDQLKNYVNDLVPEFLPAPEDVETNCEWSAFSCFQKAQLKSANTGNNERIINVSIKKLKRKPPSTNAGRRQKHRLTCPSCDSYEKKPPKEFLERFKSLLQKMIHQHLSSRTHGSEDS

[2] = target: hIL-21: human recombinant IL-21, corresponding to residues 30-162 and with an N-terminal Methionine as … (human, UniProt Q9HBE4 30-162); assay: HX-MS, 4 µM hIL-21 with 2.4 µM mAb
Sequence of hIL-21: human recombinant IL-21, corresponding to residues 30-162 and with an N-terminal Methionine as … (Q9HBE4 other isoform, or with tags, fused parts or gaps): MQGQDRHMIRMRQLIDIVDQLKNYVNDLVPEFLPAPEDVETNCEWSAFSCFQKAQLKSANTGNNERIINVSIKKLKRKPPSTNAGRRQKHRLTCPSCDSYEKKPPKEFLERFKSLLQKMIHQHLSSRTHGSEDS

[3] = target: T1, human IL-21 (hIL-21 protein; …); assay: SPR (Biacore), average of experiments
[4] = target: T1, human IL-21 (hIL-21 protein; …); assay: SPR (Biacore), mAb captured by anti-Fc, hIL-21 as analyte; experiment no 1
[5] = target: T1, human IL-21 (hIL-21 protein; …); assay: SPR (Biacore), mAb captured by anti-Fc, hIL-21 as analyte; experiment no 2
[6] = target: T1, human IL-21 (hIL-21 protein; …); assay: SPR, Biacore T200, mAb captured by anti-human Fc, hIL-21 as analyte; exp no 1
Method: (§1) Anti-human Fc monoclonal from Biacore human Fc capture kit was immobilized onto flow cells of a CM4 sensor chip according to the manufacturer's instructions. […] The CM4 surface was regenerated after each injection cycle of analyte via two injections of 3M MgCl₂ at 50 μl/min.
(§2) In order to receive kinetic data, such as ka (association rate), kd (dissociation rate) and KD (equilibrium dissociation constant), data analysis was performed using the Biacore T200 evaluation software 1.0.

[7] = target: T1, human IL-21 (hIL-21 protein; …); assay: SPR, Biacore T200, mAb captured by anti-human Fc, hIL-21 as analyte; exp no 2
Method: as §1, §2

[8] = target: T1, human IL-21 (hIL-21 protein; …); assay: SPR, Biacore T200, mAb captured by anti-human Fc, hIL-21 as analyte; exp no 1; Exp no 1, first of the two exp-1 rows for 0005
[9] = target: T1, human IL-21 (hIL-21 protein; …); assay: cell-based or functional assay; remark: listed apart in the source
[10] = target: T1, human IL-21 (hIL-21 protein; …); assay: SPR, Biacore T200, average of two experiments
Method: as §1, §2

[11] = target: T1, human IL-21 (hIL-21 protein; …); assay: SPR (Biacore), mAb captured by anti-Fc, hIL-21 as analyte; experiment no 6

amides protected from exchange in region E93-V98 at 100 sec [2] [amides] | Kd [6] | koff [6] | kon [6] [M⁻¹ s⁻¹] | Kd [7] [pM] | koff [7] [s⁻¹] | kon [7] [M⁻¹ s⁻¹] | IC50 (nM), B cell proliferation, Donor 1 [1] [nM] | IC50 (nM), B cell proliferation, Donor 3 [1] [nM] | Bioactivity as % of RM (NCC0114-0000-0006), NK-92 bioassay [9] [%] | IC50 (nM), B cell proliferation, Donor 2 [1] [nM] | IC50 (nM), B cell proliferation, Donor 4 [1] [nM] | also measured | Binder
~2 | 0.58 pM and 0.72 pM | 9.5e-06 s⁻¹ and 1.1e-05 s⁻¹ | 1.5e+07 | 0.17 | 1.1e-05 | 6.6e+07 |  |  |  |  |  | IC50 (nM), B cell proliferation, Donor 1 (0114-0000-0006) [1]: 0.82 nM; IC50 (nM), B cell proliferation, Donor 2 (0114-0000-0006) [1]: 0.83 nM; IC50 (nM), B cell proliferation, Donor 3 (0114-0000-0006) [1]: 0.57 nM; IC50 (nM), B cell proliferation, Donor 4 (0114-0000-0006) [1]: 1.33 nM; Kd [3]: ≤ 1 pM; koff [3]: 1e-05 s⁻¹; Kd [4]: 0.58 pM and 0.72 pM; koff [4]: 9.5e-06 s⁻¹ and 1.1e-05 s⁻¹; kon [4]: 1.6e+07 M⁻¹ s⁻¹ and 1.5e+07 M⁻¹ s⁻¹; Kd [5]: 0.17 pM; koff [5]: 1.1e-05 s⁻¹; kon [5]: 6.6e+07 M⁻¹ s⁻¹; kon [8]: 1.6e+07 M⁻¹ s⁻¹ | B1
~2 |  |  |  |  |  |  | 0.78 | 0.92 | 95.2 |  |  |  | B2
~2 |  |  |  |  |  |  | 0.93 | 1 | 92.9 |  |  |  | B3
~2 |  |  |  |  |  |  | 1.15 | 1.12 | 83.9 |  |  |  | B4
 | ≤ 0.46 pM | ≤ 1e-05 s⁻¹ | 2.2e+07 | 0.24 | 1.3e-05 | 5.4e+07 |  |  | 77.8 | 0.8 | 1.17 | Kd [10]: ≤ 1 pM; koff [10]: 1e-05 s⁻¹ | B5
~2 | 0.43 pM and 0.42 pM | 1.2e-05 s⁻¹ and 1.1e-05 s⁻¹ | 2.7e+07 | 0.09 | 6.8e-06 | 7.5e+07 | 1.18 | 1.21 | 89.2 |  |  | Kd [10]: ≤ 1 pM; koff [10]: 1e-05 s⁻¹ | B6
 |  |  |  |  |  |  | 1.23 | 1.13 |  | 0.86 | 0.91 | Kd [3]: ≤ 1 pM; koff [3]: 1e-05 s⁻¹; Kd [11]: 0.12 pM and 0.18 pM and 0.28 pM; koff [11]: 6.8e-06 s⁻¹ and 8.9e-06 s⁻¹ and 1.2e-05 s⁻¹; kon [11]: 5.5e+07 M⁻¹ s⁻¹ and 4.9e+07 M⁻¹ s⁻¹ and 4.3e+07 M⁻¹ s⁻¹ | B7
 |  |  |  |  |  |  |  |  | 89.8 | 0.3 | 1.35 |  | B8
